Legend:
[1] = biological target: T1, mouse liver microsomal G-6-Pase (Mus musculus, UniProt P35576); test: Phosphohydrolase assay, adult mouse liver microsomes; type: biochemical; settings: competitive inhibitor of glucose-6-P phosphohydrolysis, read-out: Vanadate, Ki
T1 construct: hepatic G-6-Pase activities of microsomes isolated from adult mouse liver; from tissue; host or cells: liver microsomes of fasted Swiss Webster mice
T1 sequence (P35576 1-357): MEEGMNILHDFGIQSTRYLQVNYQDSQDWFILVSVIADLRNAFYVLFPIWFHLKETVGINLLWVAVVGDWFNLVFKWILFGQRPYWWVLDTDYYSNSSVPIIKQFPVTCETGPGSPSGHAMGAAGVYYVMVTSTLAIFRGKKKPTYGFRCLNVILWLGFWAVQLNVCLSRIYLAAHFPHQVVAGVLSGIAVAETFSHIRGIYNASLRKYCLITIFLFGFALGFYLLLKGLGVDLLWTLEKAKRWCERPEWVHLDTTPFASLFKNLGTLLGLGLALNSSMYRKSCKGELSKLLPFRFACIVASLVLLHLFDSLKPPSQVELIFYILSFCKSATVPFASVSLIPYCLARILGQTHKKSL
Experimental: (§2) Microsomal membranes were isolated by the method of Burchell et al. supra. Samples were taken from either Swiss Webster mice which had been fasted overnight or freshly prepared homogenates of pSVLmG-6-Pase-transfected COS-1 cells. Disrupted microsomal membranes were prepared by incubating intact membranes in 0.2% deoxycholate for 20 min at 0° C.
(§3) Phosphohydrolase activity was determined essentially as described by Burchell et al. Supra. […] Sample absorbance was determined at 820 nm and is related to the amount of phosphate released using a standard curve constructed by a stock of inorganic phosphate solution.

[2] = biological target: human liver microsomal G-6-Pase (Homo sapiens, UniProt P35575); settings: read-out: Vanadate K1; human liver microsomes
Experimental: (§1) The functional identity of the human G-6-Pase cDNA was studied in a manner similiar to that described above with the murine G-6-Pase. Detailed biochemical studies were performed on microsomal preparations isolated from COS-1 cells transiently transfected with the phG-6-Pase-1 cDNA and compared with activities in human liver microsomes.

human G-6-Pase = human G-6-Pase (Homo sapiens, UniProt P35575, A192T); settings: read-out: Vanadate K1; phG-6-Pase-1-transfected COS-1 microsomes
Experimental: as §1

[3] = biological target: glucose-6-P phosphohydrolase activity; settings: read-out: Ki for vanadate reported; permeable hepatocytes or rat microsomes; cited from earlier work
murine G-6-Pase = biological target: T2, murine G-6-Pase (Mus musculus, UniProt P35576); settings: read-out: Ki values for vanadate observed in the present study; both microsomal preparations (transfected COS-1 cells and adult mouse livers)
T2 sequence (P35576 1-357): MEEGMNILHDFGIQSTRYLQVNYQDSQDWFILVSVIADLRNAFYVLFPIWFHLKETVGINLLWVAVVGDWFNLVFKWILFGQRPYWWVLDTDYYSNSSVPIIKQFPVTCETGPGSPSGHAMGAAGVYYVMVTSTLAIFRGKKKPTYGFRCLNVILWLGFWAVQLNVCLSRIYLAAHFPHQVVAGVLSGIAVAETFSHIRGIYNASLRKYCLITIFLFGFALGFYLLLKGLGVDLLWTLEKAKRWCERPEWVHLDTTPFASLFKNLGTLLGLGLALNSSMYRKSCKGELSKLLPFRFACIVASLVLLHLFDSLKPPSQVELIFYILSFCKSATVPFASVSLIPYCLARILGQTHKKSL
Experimental: COS-1 cells were grown at 37° C. in HEPES-buffered Dulbecco modified minimal essential medium supplemented with streptomycin, penicillin, and 4% fetal bovine serum. […] Mock transfections of COS-1 cultures with the pSVL vector were used as controls.
as §2, §3

[4] = substrate: O=P(O)(O)OC[C@H]1OC(O)[C@@H](O)[C@@H](O)[C@@H]1O; test: cells, lysate or membranes named; settings: other: disrupted adult mouse liver microsomes; mean ± SEM; pH 6.5; 30.0 °C
[5] = substrate: O=P(O)(O)OC[C@H]1OC(O)[C@H](O)[C@@H](O)[C@@H]1O; test: cells, lysate or membranes named; settings: pH 6.5, 30.0 °C
[6] = pH profile of glucose-6-P phosphohydrolase activity in disrupted microsomes; type: biochemical, mouse
[7] = Thermal stability of glucose-6-P phosphohydrolase activity (37° C., 10 min, pH 5.0); type: biochemical; settings: for Thermal Stability (enzyme activities remaining after heat treatment): deoxycholate (0.2%) disrupted microsomes
Experimental: Hepatic G-6-Pase is characterized by its high thermal lability; G-6-Pase is completely inactivated by incubating the microsomal preparation (or homogenate) at pH 5.0 for 10 min at 37° C., Hers, H. G., in Advances in Metabolic Disorders Vol 1 (eds Levine, R., Luft, L.), 1-44 (Academic Press, London, 1964).

[8] = Carbamyl-P:glucose phosphotransferase activity in disrupted microsomes; type: biochemical, mouse; settings: deoxycholate-disrupted microsomes, linear region of enzyme concentration curves
Experimental: Phosphotransferase activity was determined by a modification of the method described by Jorgenson and Nordlie, supra. Reaction mixture (10 μl) contained 100 mM HEPES buffer, pH 6.5, 50 mM glucose, […] D-glucose (10^5 cpm/reaction, 256 mCi/mmol, ICN Biochemicals, Irvine, Calif.), 4 mM carbamyl-P, and deoxycholate-disrupted microsomal proteins. […] The samples were then centrifuged at 10,000×g for 5 min, and 2 to 4 μl of supernatant applied to a PEI-cellulose plate (J. T. Baker, Inc., Phillipsburg, N.J.). Glucose-6-P was separated from glucose by thin-layer chromatography developed in water. Spots were quantitated on an AMBIS Radioanalytic Imaging System (San Diego, Calif.).

[9] = Phosphohydrolase activity of site-directed human G-6-Pase mutants in transfected cells; type: biochemical; settings: arginine to cysteine substitution; pSVL constructs in transfected cells
Text: The two outside PCR primers were 01 (5'-[…]-3' (Seq. ID No.:29), nucleotides 77 to 96) and 02 (5'-[…]-3' (Seq. ID No.:30), nucleotides 1153 to 1130). […] 01 and 02 contain an additional XhoI or XbaI linker, respectively. […] The amplified fragments were digested with XhoI and XbaI and ligated into a pSVL vector. All constructs were confirmed by DNA sequencing.

## [O]=[V]([OH])([OH])[OH] [Vanadate]
[1]
  Ki: 330 µM
[2]
  Ki: 1610 µM
Human G-6-Pase
  Ki: 1680 µM
[3]
  Ki: 1.5 µM
Murine G-6-Pase
  Ki: 330 to 340 µM

B1: mouse liver microsomal G-6-Pase (Mus musculus) (protein)
chain: MEEGMNILHDFGIQSTRYLQVNYQDSQDWFILVSVIADLRNAFYVLFPIWFHLKETVGINLLWVAVVGDWFNLVFKWILFGQRPYWWVLDTDYYSNSSVPIIKQFPVTCETGPGSPSGHAMGAAGVYYVMVTSTLAIFRGKKKPTYGFRCLNVILWLGFWAVQLNVCLSRIYLAAHFPHQVVAGVLSGIAVAETFSHIRGIYNASLRKYCLITIFLFGFALGFYLLLKGLGVDLLWTLEKAKRWCERPEWVHLDTTPFASLFKNLGTLLGLGLALNSSMYRKSCKGELSKLLPFRFACIVASLVLLHLFDSLKPPSQVELIFYILSFCKSATVPFASVSLIPYCLARILGQTHKKSL
[4]
  Km: 670 µM
[5]; other: disrupted adult mouse liver microsomes, mean ± SEM
  Km: 680 µM
[5]; other: intact adult mouse liver microsomes
  Km: 3300 µM

B2: pSVLmG-6-Pase-Transfacted COS: recombinant murine G-6-Pase in microsomes of COS-1 cells transfected with pSVLmG-6-Pase (protein, UniProt P35576 1-357, looked up)
Glucose-6-phosphatase …: MEEGMNILHDFGIQSTRYLQVNYQDSQDWFILVSVIADLRNAFYVLFPIWFHLKETVGINLLWVAVVGDWFNLVFKWILFGQRPYWWVLDTDYYSNSSVPIIKQFPVTCETGPGSPSGHAMGAAGVYYVMVTSTLAIFRGKKKPTYGFRCLNVILWLGFWAVQLNVCLSRIYLAAHFPHQVVAGVLSGIAVAETFSHIRGIYNASLRKYCLITIFLFGFALGFYLLLKGLGVDLLWTLEKAKRWCERPEWVHLDTTPFASLFKNLGTLLGLGLALNSSMYRKSCKGELSKLLPFRFACIVASLVLLHLFDSLKPPSQVELIFYILSFCKSATVPFASVSLIPYCLARILGQTHKKSL
modifications: in COS-1 microsomes
notes: recombinant murine G-6-Pase in microsomes of COS-1 cells transfected with pSVLmG-6-Pase
[6]
  pH optimum of glucose-6-P phosphohydrolase activity: ~6.5
[7]; 37° C. for 10 min at pH 5.0, murine study
  Thermal Stability (enzyme activities remaining after heat treatment): 1.6%
[7]; murine study
  glucose-6-P phosphohydrolase activity after incubation at 37° C. for 10 min at pH 5.0 (in words): abolished
[8]
  Phosphotransferase, Carbamyl-P: Glucose: 0.22 μmol/min/mg of microsomal prot

B3: human G-6-Pase (Homo sapiens; A192T) (protein)
chain: MEEGMNVLHDFGIQSTHYLQVNYQDSQDWFILVSVIADLRNAFYVLFPIWFHLQEAVGIKLLWVAVIGDWLNLVFKWILFGQRPYWWVLDTDYYSNTSVPLIKQFPVTCETGPGSPSGHAMGTAGVYYVMVTSTLSIFQGKIKPTYRFRCLNVILWLGFWAVQLNVCLSRIYLAAHFPHQVVAGVLSGIAVTETFSHIHSIYNASLKKYFLITFFLFSFAIGFYLLLKGLGVDLLWTLEKAQRWCEQPEWVHIDTTPFASLLKNLGTLFGLGLALNSSMYRESCKGKLSKWLPFRLSSIVASLVLLHVFDSLKPPSQVELVFYVLSFCKSAVVPLASVSVIPYCLAQVLGQPHKKSL
[5]; other: phG-6-Pase-1-transfected COS-1 microsomes
  Km: 1770 ± 130 µM

B4: phG-6-Pase-1-COS: recombinant human G-6-Pase in microsomes of COS-1 cells transiently transfected with phG-6-Pase-1 cDNA (protein, UniProt P35575 1-357, looked up)
Glucose-6-phosphatase …: MEEGMNVLHDFGIQSTHYLQVNYQDSQDWFILVSVIADLRNAFYVLFPIWFHLQEAVGIKLLWVAVIGDWLNLVFKWILFGQRPYWWVLDTDYYSNTSVPLIKQFPVTCETGPGSPSGHAMGTAGVYYVMVTSTLSIFQGKIKPTYRFRCLNVILWLGFWAVQLNVCLSRIYLAAHFPHQVVAGVLSGIAVAETFSHIHSIYNASLKKYFLITFFLFSFAIGFYLLLKGLGVDLLWTLEKAQRWCEQPEWVHIDTTPFASLLKNLGTLFGLGLALNSSMYRESCKGKLSKWLPFRLSSIVASLVLLHVFDSLKPPSQVELVFYVLSFCKSAVVPLASVSVIPYCLAQVLGQPHKKSL
modifications: in COS-1 microsomes
notes: recombinant human G-6-Pase in microsomes of COS-1 cells transiently transfected with phG-6-Pase-1 cDNA
[7]; 10 min at 37° C., 50 mM cacodylate buffer pH 5.0, human study
  Thermal Stability (enzyme activities remaining after heat treatment): 6.0%
[7]; human study
  glucose-6-P phosphohydrolase activity after incubation at 37° C. for 10 min at pH 5.0 (in words): virtually abolished

B5: G-6-Pase-Cys^83: human G-6-Pase mutant, arginine 83 changed to cysteine (protein, UniProt P35575 1-357, looked up, variant R83C)
Glucose-6-phosphatase …: MEEGMNVLHDFGIQSTHYLQVNYQDSQDWFILVSVIADLRNAFYVLFPIWFHLQEAVGIKLLWVAVIGDWLNLVFKWILFGQCPYWWVLDTDYYSNTSVPLIKQFPVTCETGPGSPSGHAMGTAGVYYVMVTSTLSIFQGKIKPTYRFRCLNVILWLGFWAVQLNVCLSRIYLAAHFPHQVVAGVLSGIAVAETFSHIHSIYNASLKKYFLITFFLFSFAIGFYLLLKGLGVDLLWTLEKAQRWCEQPEWVHIDTTPFASLLKNLGTLFGLGLALNSSMYRESCKGKLSKWLPFRLSSIVASLVLLHVFDSLKPPSQVELVFYVLSFCKSAVVPLASVSVIPYCLAQVLGQPHKKSL
[9]
  G-6-Pase phosphohydrolase activity of mutant: abolished

B6: G-6-Pase-Cys^295: human G-6-Pase mutant, arginine 295 changed to cysteine (protein, UniProt P35575 1-357, looked up, variant R295C)
Glucose-6-phosphatase …: MEEGMNVLHDFGIQSTHYLQVNYQDSQDWFILVSVIADLRNAFYVLFPIWFHLQEAVGIKLLWVAVIGDWLNLVFKWILFGQRPYWWVLDTDYYSNTSVPLIKQFPVTCETGPGSPSGHAMGTAGVYYVMVTSTLSIFQGKIKPTYRFRCLNVILWLGFWAVQLNVCLSRIYLAAHFPHQVVAGVLSGIAVAETFSHIHSIYNASLKKYFLITFFLFSFAIGFYLLLKGLGVDLLWTLEKAQRWCEQPEWVHIDTTPFASLLKNLGTLFGLGLALNSSMYRESCKGKLSKWLPFCLSSIVASLVLLHVFDSLKPPSQVELVFYVLSFCKSAVVPLASVSVIPYCLAQVLGQPHKKSL
[9]
  G-6-Pase phosphohydrolase activity of mutant: abolished

B7: human liver microsomal G-6-Pase (Homo sapiens) (protein)
chain: MEEGMNVLHDFGIQSTHYLQVNYQDSQDWFILVSVIADLRNAFYVLFPIWFHLQEAVGIKLLWVAVIGDWLNLVFKWILFGQRPYWWVLDTDYYSNTSVPLIKQFPVTCETGPGSPSGHAMGTAGVYYVMVTSTLSIFQGKIKPTYRFRCLNVILWLGFWAVQLNVCLSRIYLAAHFPHQVVAGVLSGIAVAETFSHIHSIYNASLKKYFLITFFLFSFAIGFYLLLKGLGVDLLWTLEKAQRWCEQPEWVHIDTTPFASLLKNLGTLFGLGLALNSSMYRESCKGKLSKWLPFRLSSIVASLVLLHVFDSLKPPSQVELVFYVLSFCKSAVVPLASVSVIPYCLAQVLGQPHKKSL
[5]; other: human liver microsomes
  Km: 1710 ± 110 µM
